# Laboratory results as given in PMC8682777, “Mechanisms of distinctive mismatch tolerance between Rad51 and Dmc1 in homologous recombination” (Nucleic Acids Research, 2021).
# T1: ScDmc1 wt (UniProt P25453 1-334)
# T1 sequence: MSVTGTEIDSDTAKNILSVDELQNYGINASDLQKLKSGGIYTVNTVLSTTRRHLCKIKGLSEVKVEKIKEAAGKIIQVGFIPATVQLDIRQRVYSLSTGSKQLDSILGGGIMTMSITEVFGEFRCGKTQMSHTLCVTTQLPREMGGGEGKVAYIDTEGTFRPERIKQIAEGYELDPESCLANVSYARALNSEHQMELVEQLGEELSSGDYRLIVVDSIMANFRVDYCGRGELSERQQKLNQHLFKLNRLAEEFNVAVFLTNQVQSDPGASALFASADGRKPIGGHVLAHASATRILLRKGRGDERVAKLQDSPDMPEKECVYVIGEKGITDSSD
# B1: yeast Dmc1 wild type (natural protein)
# chain: MSVTGTEIDSDTAKNILSVDELQNYGINASDLQKLKSGGIYTVNTVLSTTRRHLCKIKGLSEVKVEKIKEAAGKIIQVGFIPATVQLDIRQRVYSLSTGSKQLDSILGGGIMTMSITEVFGEFRCGKTQMSHTLCVTTQLPREMGGGEGKVAYIDTEGTFRPERIKQIAEGYELDPESCLANVSYARALNSEHQMELVEQLGEELSSGDYRLIVVDSIMANFRVDYCGRGELSERQQKLNQHLFKLNRLAEEFNVAVFLTNQVQSDPGASALFASADGRKPIGGHVLAHASATRILLRKGRGDERVAKLQDSPDMPEKECVYVIGEKGITDSSD
# notes: Dmc1 meiotic recombinase, yeast (ScDmc1); wt construct pNRB150, a gift from Dr Zhi Qi; Stood as a helical filament on ssDNA (presynaptic) or dsDNA (postsynaptic) with ATP-Ca2+; The stored protein is named His6-ScDmc1 and no cleavage of the tag is described; also called ScDmc1; ScDmc1 wt; source: E. coli BLR(DE3) plysS (RecA-deficient), purified (Talon beads, Heparin)
# B2: human RAD51 mutant 273-PG-274 (natural protein)
# chain: MAMQMQLEANADTSVEEESFGPQPISRLEQCGINANDVKKLEEAGFHTVEAVAYAPKKELINIKGISEAKADKILAEAAKLVPMGFTTATEFHQRRSEIIQITTGSKELDKLLQGGIETGSITEMFGEFRTGKTQICHTLAVTCQLPIDRGGGEGKAMYIDTEGTFRPERLLAVAERYGLSGSDVLDNVAYARAFNTDHQTQLLYQASAMMVESRYALLIVDSATALYRTDYSGRGELSARQMHLARFLRMLLRLADEFGVAVVITNQVVAQPGGAAMFAADPKKPIGGNIIAHASTTRLYLRKGRGETRICKIYDSPCLPEAEAMFAINADGVGDAKD
# notes: RAD51 recombinase, human, with V273 and D274 of Loop2 changed to P and G (the residues of hDMC1); made from the hRAD51 wt construct by point mutation; Stood as a helical filament on dsDNA (postsynaptic complex, without RS-1); Only an EM map is deposited (EMD-31155), no PDB model; also called PG mutant; source: E. coli BLR(DE3) plysS (RecA-deficient), purified as hRAD51 wt
# B3: 150-mer ssDNA oligo 4 (ssDNA)
# DNA: TAAATAAGATAAGGATAATACAAAATAAGTAAATGAATAAACAGAGAAAATAAAGTAAAGGATATAAAAAATGAACATAAAGAATAAGTAAATGAATAAAACATAATAGGAATAAATATAGGAAATGAAATAAAAGAGACATAAATAAGA
# B4: 150-bp homologous dsDNA oligo 4/oligo 5 (postsynaptic) (dsDNA)
# DNA 1: TAAATAAGATAAGGATAATACAAAATAAGTAAATGAATAAACAGAGAAAATAAAGTAAAGGATATAAAAAATGAACATAAAGAATAAGTAAATGAATAAAACATAATAGGAATAAATATAGGAAATGAAATAAAAGAGACATAAATAAGA
# DNA 2: TCTTATTTATGTCTCTTTTATTTCATTTCCTATATTTATTCCTATTATGTTTTATTCATTTACTTATTCTTTATGTTCATTTTTTATATCCTTTACTTTATTTTCTCTGTTTATTCATTTACTTATTTTGTATTATCCTTATCTTATTTA
# Columns and labels:
# [1] = biological target: the molecule itself; experiment: cryo-EM structure; helical filaments of 4 uM ScDmc1 on 150-mer ssDNA (presynaptic) or after strand exchange with 150-bp dsDNA and 0.4 uM Hop2-Mnd1 (postsynaptic); 35 mM Tris-HCl pH 7.5, 96 mM KCl, 2 mM ATP, 5 mM CaCl2, 1 mM DTT, 37°C
# [2] = biological target: the molecule itself; experiment: cryo-EM structure; helical filaments of 2 uM hRAD51 on 150-mer ssDNA with 2 uM RS-1 (presynaptic, wt only) or after strand exchange with dsDNA and 0.2 uM Hop2-Mnd1 without RS-1 (postsynaptic, wt and 273-PG-274); 25 mM HEPES pH 7.5, 25 mM KCl, 4 mM MgCl2, 4 mM AMP-PNP, 37°C
# hRAD51 wt [3] = biological target: T2, hRAD51 wt (Homo sapiens (human), UniProt Q06609 1-339); experiment: cryo-EM; 4 mM AMP-PNP, 4 mM Mg2+, RS-1; presynaptic complex; hRAD51: 25 mM HEPES pH 7.5, 25 mM KCl, 4 mM MgCl2, 4 mM AMP-PNP, 37 C; ScDmc1: 35 mM Tris-HCl pH 7.5, 96 mM KCl, 2 mM ATP, 5 mM CaCl2, 1 mM DTT, 37 C. Strand-exchange/smFRET activity assays and MM-GBSA energies not listed.; details: protein: recombinant; chain copies: 10
# ScDmc1 wt [4] = biological target: T1, ScDmc1 wt; experiment: cryo-EM; 2 mM ATP, 5 mM Ca2+; presynaptic complex; hRAD51: 25 mM HEPES pH 7.5, 25 mM KCl, 4 mM MgCl2, 4 mM AMP-PNP, 37 C; ScDmc1: 35 mM Tris-HCl pH 7.5, 96 mM KCl, 2 mM ATP, 5 mM CaCl2, 1 mM DTT, 37 C. Strand-exchange/smFRET activity assays and MM-GBSA energies not listed.; details: protein: recombinant; tags: His6
# hRAD51 wt [5] = biological target: T2, hRAD51 wt; experiment: cryo-EM; AMP-PNP, Mg2+, Hop2-Mnd1 added to trigger exchange, no RS-1; postsynaptic complex; hRAD51: 25 mM HEPES pH 7.5, 25 mM KCl, 4 mM MgCl2, 4 mM AMP-PNP, 37 C; ScDmc1: 35 mM Tris-HCl pH 7.5, 96 mM KCl, 2 mM ATP, 5 mM CaCl2, 1 mM DTT, 37 C. Strand-exchange/smFRET activity assays and MM-GBSA energies not listed.; details: protein: recombinant; chain copies: 16; blunt
# ScDmc1 wt [6] = biological target: T1, ScDmc1 wt; experiment: cryo-EM; 2 mM ATP, 5 mM Ca2+, Hop2-Mnd1 added; postsynaptic complex; hRAD51: 25 mM HEPES pH 7.5, 25 mM KCl, 4 mM MgCl2, 4 mM AMP-PNP, 37 C; ScDmc1: 35 mM Tris-HCl pH 7.5, 96 mM KCl, 2 mM ATP, 5 mM CaCl2, 1 mM DTT, 37 C. Strand-exchange/smFRET activity assays and MM-GBSA energies not listed.; details: protein: recombinant; tags: His6; blunt
# hRAD51 273-PG-274 = hRAD51 273-PG-274 (Homo sapiens (human), UniProt Q06609 1-339, V273P;D274G); experiment: cryo-EM; AMP-PNP, Mg2+, Hop2-Mnd1 added, no RS-1; postsynaptic complex; hRAD51: 25 mM HEPES pH 7.5, 25 mM KCl, 4 mM MgCl2, 4 mM AMP-PNP, 37 C; ScDmc1: 35 mM Tris-HCl pH 7.5, 96 mM KCl, 2 mM ATP, 5 mM CaCl2, 1 mM DTT, 37 C. Strand-exchange/smFRET activity assays and MM-GBSA energies not listed.; details: protein: recombinant; chain copies: 16; blunt
binder,measurement,setting,value
B1,binding result,[1],binds
B2,binding result,[2],binds
B3,binding result,hRAD51 wt [3],binds
same,binding result,ScDmc1 wt [4],binds
B4,binding result,hRAD51 wt [5],binds
same,binding result,ScDmc1 wt [6],binds
same,binding result,hRAD51 273-PG-274,binds
